Assay results reported in patent US20200369755A1 (PROTHENA BIOSCIENCES, published 2020).
Where no end group is shown, it is not given here.

Tests used:
Assay in all cases: peptide ELISA, biotinylated peptide on streptavidin plate; background-subtracted absorbance; positive from 0.2
109-123 = biological target: T1, 109-123 (also: biotinylated, site not given here)
T1 construct: also called tau peptide 109-123 (4R0N numbering)
T1 peptide: NATRIPAKTPPAPKT
Method: (§1) Additional peptides were used to model potential post-translational modifications of the C- and N-terminal ends of the protein.
(§2) Biotinylated peptides were bound to separate wells of a streptavidin-coated ELISA plate. The plate was blocked and treated with murine 3D6, followed by incubation with a horseradish peroxidase-conjugated anti-mouse antibody. After thorough washing, OPD was applied to the plate and allowed to develop. The plate was read at 450 nm absorbance. Background subtraction was performed with absorbance values from wells containing no primary antibody, and a threshold for positive binding was set to 0.2 absorbance units. […] (FIG. 1)

208-222 = biological target: T2, 208-222 (also: biotinylated, site not given here)
T2 construct: also called tau peptide 208-222 (4R0N numbering)
T2 peptide: LKHQPGGGKVQIINK
Method: as §1, §2

280-294 = biological target: T3, 280-294 (also: biotinylated, site not given here)
T3 construct: also called tau peptide 280-294 (4R0N numbering)
T3 peptide: EVKSEKLDFKDRVQS
Method: as §1, §2

289-303 = biological target: T4, 289-303 (also: biotinylated, site not given here)
T4 construct: also called tau peptide 289-303 (4R0N numbering)
T4 peptide: KDRVQSKIGSLDNIT
Method: as §1, §2

100-114 = biological target: T5, 100-114 (also: biotinylated (site not given here))
T5 construct: also called tau peptide 100-114 (4R0N numbering)
T5 peptide: APPGQKGQANATRIP
Method: as §1, §2

334-348 = biological target: T6, 334-348 (also: biotinylated, site not given here)
T6 construct: also called tau peptide 334-348 (4R0N numbering)
T6 peptide: IVYKSPVVSGDTSPR
Method: as §1, §2

82-96 = biological target: T7, 82-96 (also: biotinylated, site not given here)
T7 construct: also called tau peptide 82-96 (4R0N numbering)
T7 peptide: KKAKGADGKTKIATP
Method: as §1, §2

145-159 = biological target: T8, 145-159 (also: biotinylated, site not given here)
T8 peptide: PGTPGSRSRTPSLPT
Method: as §1, §2

1-15* (acetylated) = biological target: T9, 1-15* (acetylated) (also: biotinylated (site not given here))
T9 construct: also called tau peptide 1-15 (4R0N numbering), acetylated
T9 peptide: Ac-MAEPRQEFEVMEDHA
Method: as §1, §2

91-105 = biological target: T10, 91-105 (also: biotinylated, site not given here)
T10 construct: also called tau peptide 91-105 (4R0N numbering)
T10 peptide: TKIATPRGAAPPGQK
Method: as §1, §2

244-258 = biological target: T11, 244-258 (also: biotinylated, site not given here)
T11 peptide: GGGSVQIVYKPVDLS
Method: as §1, §2

271-285 = biological target: T12, 271-285 (also: biotinylated, site not given here)
T12 peptide: HHKPGGGQVEVKSEK
Method: as §1, §2

73-87 = biological target: T13, 73-87 (also: biotinylated, site not given here)
T13 construct: also called tau peptide 73-87 (4R0N numbering)
T13 peptide: SKDGTGSDDKKAKGA
Method: as §1, §2

118-132 = biological target: T14, 118-132 (also: biotinylated, site not given here)
T14 peptide: PPAPKTPPSSGEPPK
Method: as §1, §2

37-51 = biological target: T15, 37-51 (also: biotinylated, site not given here)
T15 construct: also called tau peptide 37-51 (4R0N numbering)
T15 peptide: GDTDAGLKAEEAGIG
Method: as §1, §2

253-267 = biological target: T16, 253-267 (also: biotinylated, site not given here)
T16 construct: also called tau peptide 253-267 (4R0N numbering)
T16 peptide: KPVDLSKVTSKCGSL
Method: as §1, §2

172-186 = biological target: T17, 172-186 (also: biotinylated, site not given here)
T17 construct: also called tau peptide 172-186 (4R0N numbering)
T17 peptide: RTPPKSPSSAKSRLQ
Method: as §1, §2

127-141 = biological target: T18, 127-141 (also: biotinylated, site not given here)
T18 peptide: SGEPPKSGDRSGYSS
Method: as §1, §2

235-249 = biological target: T19, 235-249 (also: biotinylated, site not given here)
T19 construct: also called tau peptide 235-249 (4R0N numbering)
T19 peptide: SKDNIKHVPGGGSVQ
Method: as §1, §2

369-383 (free C-term) = biological target: T20, 369-383 (free C-term) (also: biotinylated, site not given here)
T20 peptide: TLADEVSASLAKQGL-OH
Method: as §1, §2

181-195 = biological target: T21, 181-195 (also: biotinylated, site not given here)
T21 peptide: AKSRLQTAPVPMPDL
Method: as §1, §2

- binding result (109-123): no binding
- binding result (208-222): no binding
- binding result (280-294): no binding
- binding result (289-303): no binding
- binding result (100-114): no binding
- binding result (334-348): no binding
- binding result (82-96): no binding
- binding result (145-159): no binding
- binding result (1-15* (acetylated)): no binding
- binding result (91-105): no binding
- binding result (244-258): no binding
- binding result (271-285): no binding
- binding result (73-87): no binding
- binding result (118-132): no binding
- binding result (37-51): no binding
- binding result (253-267): no binding
- binding result (172-186): no binding
- binding result (127-141): no binding
- binding result (235-249): no binding
- binding result (369-383 (free C-term)): no binding
- binding result (181-195): no binding
B1: murine 3D6 monoclonal antibody (antibody, IgG1, V domains shown)
VH: EVQLQQSGADLVRPGALVKLSCKASGFNIKDYYLHWVRQRPEQGLEWIGWIDPENGDTVYDPKFQGKATITADTSSNTAYLQLGSLTSEDTAVYFCSTLDFWGQGTTLTVSS
VL: not shown
notes: Hybridoma-derived mouse antibody; also called m3D6; mouse 3D6
